The nature of this series: self-splicing fitness, log relative to wild type (ln ratio); higher = more splicing; Tetrahymena group I intron in knt gene, E. coli kanamycin selection, DiMSum; sequences stand for … in CUCUCU…GGAGGGAAAAGUUAUCAGGCAUGCACCUGGUAGCUAGUCUUUAAACCAAUAGAUUGCAUCGGUUUAAAAGGCAAGACCGUCAAAUUGCGGGAAAGGGGUCAACAGCCGUUCAGUACCAAGUCUCAGGGGAAACUUUGAGAUGGCCUUGCAAAGGGUAUGGUAAUAAGCUGACGGACAUGGUCCUAACCACGCAGCCAAGUCCUAAGUCAACAGAUCUUCUGUUGAUAUGGAUGCAGUUCACAGACUAAAUGUCGGUCGGGGAAGAUGUAUUCUUCUCAUAAGAUAUAGUCGGACCUCUCCUUAAUGGGAGCUAGCGGAUGAAGUGAUGCAACACUGGAGCCGCUGGGAACUAAUUUGUAUGCGAAAGUAUAUUGAUUAGUUUUGGAGUACUCGUGGUCG
Summed up:
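Six replicate transformations of E. coli BL21(DE3) with a pET-22b(+) library were grown overnight at 37°C or 30°C. The library randomised all eight P1ex-region intron nucleotides, the intron lying in the knt kanamycin-resistance gene, and plates were LB agar with or without 25 μg/mL kanamycin plus 100 μg/mL carbenicillin, 50 μM IPTG and 0.2% rhamnose. Pooled colonies were amplicon-sequenced on an Illumina HiSeq 2500, and fitness is the DiMSum error-weighted combination of wild-type-normalised replicate fold changes, kanamycin versus none.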

38 sequences from the supplement of paper PMC7877785 can be followed below.

± gives the uncertainty stated by the source.

For AGCUAGCAAUAUUACGCAUA, the “self-splicing fitness (ln)” value is -2.4 ± 0.12 (30 °C) and -1.22 ± 0.14 (37 °C). As for AAUCAGCAAUAUUACGUCUG, the “self-splicing fitness (ln)” value is -1.16 ± 0.049 (30 °C) and -0.895 ± 0.065 (37 °C). Regarding CGGAAGCAAUAUUACGCAUU, the “self-splicing fitness (ln)” value is -3.52 ± 0.3 (30 °C) and -2.98 ± 0.29 (37 °C). With GACGAGCAAUAUUACGGUUG, the “self-splicing fitness (ln)” value by setting is: (30 °C) -2.82 ± 0.13; (37 °C) -1.76 ± 0.13. For CUAAAGCAAUAUUACGGCGC, in that order: -2.54 ± 0.21 and -2.38 ± 0.45. For CGCGAGCAAUAUUACGUAAG, the “self-splicing fitness (ln)” value (30 °C) is -1.78 ± 0.096 and the “self-splicing fitness (ln)” value (37 °C) is -1.73 ± 0.12.

Consider CUUUAGCAAUAUUACGGCGC, for which the “self-splicing fitness (ln)” value (30 °C) was -2.73 ± 0.37. Consider AUAAAGCAAUAUUACGCUCA, for which the “self-splicing fitness (ln)” value is, setting by setting: (30 °C) 0.119 ± 0.11; (37 °C) -0.112 ± 0.12.

Regarding AGCCAGCAAUAUUACGUUCA, the “self-splicing fitness (ln)” value (30 °C) is -3.21 ± 0.15 and the “self-splicing fitness (ln)” value (37 °C) was -2.72 ± 0.18. Take GAACAGCAAUAUUACGCCCC: the “self-splicing fitness (ln)” value (30 °C) was -1.22 ± 0.25 and the “self-splicing fitness (ln)” value (37 °C) was -0.835 ± 0.47.

Regarding UUGUAGCAAUAUUACGUCCA, the “self-splicing fitness (ln)” value runs as follows: (30 °C) -0.4 ± 0.13; (37 °C) -0.28 ± 0.14. Turning to CGAUAGCAAUAUUACGUCAA, the “self-splicing fitness (ln)” value runs as follows: (30 °C) -3.18 ± 0.18; (37 °C) -2.08 ± 0.15. Regarding GCGUAGCAAUAUUACGAGCG, the “self-splicing fitness (ln)” value is -0.887 ± 0.15 (30 °C) and -1.62 ± 0.17 (37 °C).

For AUACAGCAAUAUUACGAUGG, the “self-splicing fitness (ln)” value by setting is: (30 °C) -3.04 ± 0.18; (37 °C) -2.35 ± 0.23. In the case of UACCAGCAAUAUUACGGAAG, the “self-splicing fitness (ln)” value is -3.5 ± 0.24 (30 °C) and -1.57 ± 0.16 (37 °C). Taken in the same sequence, the figures for UGGCAGCAAUAUUACGUUUU were -2.85 ± 0.14 and -0.527 ± 0.13.

On to GCUCAGCAAUAUUACGGGAU, for which the “self-splicing fitness (ln)” value reads like this: (30 °C) -1.16 ± 0.097; (37 °C) -0.195 ± 0.11. As to UGGAAGCAAUAUUACGUAGC, the “self-splicing fitness (ln)” value is, setting by setting: (30 °C) -2.29 ± 0.21; (37 °C) -0.661 ± 0.24. For CGGCAGCAAUAUUACGCCCA, in that order: 0.189 ± 0.12 and -0.0939 ± 0.14.

For the sequence UGAUAGCAAUAUUACGCUGC, the “self-splicing fitness (ln)” value was -3.67 ± 0.31 (30 °C) and -2.61 ± 0.48 (37 °C). For GUUCAGCAAUAUUACGAGUA, in that order: -1.66 ± 0.19 and -0.65 ± 0.16. For AAAAAGCAAUAUUACGACGG, the “self-splicing fitness (ln)” value was -1.76 ± 0.17 (30 °C) and -1.12 ± 0.21 (37 °C).

As for ACUUAGCAAUAUUACGACUC, the “self-splicing fitness (ln)” value runs as follows: (30 °C) -1.05 ± 0.12; (37 °C) -0.137 ± 0.15.

For GAUGAGCAAUAUUACGGUUG, the “self-splicing fitness (ln)” value (30 °C) is -3.87 ± 0.21 and the “self-splicing fitness (ln)” value (37 °C) was -2.22 ± 0.18.

Consider UUCCAGCAAUAUUACGCGGG, for which the “self-splicing fitness (ln)” value was -3.83 ± 0.29 (30 °C) and -2.69 ± 0.29 (37 °C). As to GGGCAGCAAUAUUACGUGCC, the “self-splicing fitness (ln)” value (37 °C) is -0.519 ± 0.48. Regarding GUCAAGCAAUAUUACGCGUG, the “self-splicing fitness (ln)” value is -2.92 ± 0.16 (30 °C) and -1.78 ± 0.16 (37 °C). For CUUCAGCAAUAUUACGUUCU, in that order: -4.03 ± 0.33 and -2.26 ± 0.2.

With UCCUAGCAAUAUUACGACUU, the “self-splicing fitness (ln)” value runs as follows: (30 °C) -3.74 ± 0.46; (37 °C) -2.74 ± 0.3. As for ACCGAGCAAUAUUACGGUGC, the “self-splicing fitness (ln)” value (30 °C) was -2.97 ± 0.21 and the “self-splicing fitness (ln)” value (37 °C) was -3.33 ± 0.37. Taken in the same sequence, the figures for UGGAAGCAAUAUUACGAUGA were -0.768 ± 0.18 and -0.0449 ± 0.17. On to ACGGAGCAAUAUUACGAUGG, for which the “self-splicing fitness (ln)” value is, setting by setting: (30 °C) -3.63 ± 0.32; (37 °C) -0.86 ± 0.27. AGCAAGCAAUAUUACGCAGU: the “self-splicing fitness (ln)” value reads like this: (30 °C) -3.01 ± 0.18; (37 °C) -1.28 ± 0.14. As to CGCUAGCAAUAUUACGCGUA, the “self-splicing fitness (ln)” value was -3.45 ± 0.37 (30 °C) and -1.45 ± 0.15 (37 °C). For AAAUAGCAAUAUUACGGCCC, in that order: -0.752 ± 0.16 and -0.254 ± 0.22. For UACUAGCAAUAUUACGUUUC, in that order: -4.15 ± 0.33 and -2.53 ± 0.23.

For GGCCAGCAAUAUUACGGCGU, the “self-splicing fitness (ln)” value by setting is: (30 °C) -1.59 ± 0.098; (37 °C) -0.69 ± 0.12. For GUUCAGCAAUAUUACGGCAA, the “self-splicing fitness (ln)” value was -0.436 ± 0.078 (30 °C) and -0.458 ± 0.1 (37 °C).
